Source: the nanobody polyreactivity screen of Harvey et al. (2022)

Assay: yeast display, Sf9 membrane polyspecificity reagent, FACS + sequencing; frameworks hold sequencing errors
Procedure, shortened: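 Genes from sorted yeast were amplified by colony PCR, read by MiSeq 2 × 250 sequencing and filtered on CDR length. These cells carried a synthetic nanobody library in Saccharomyces cerevisiae BJ5465 and were sorted by FACS into low and high (top ~1%) gates on anti-HA and streptavidin fluorescence. Polyreactivity is labelled according to the gate of origin.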

Sequence: QVQLVESGGGLVQAGGSLRLSCAASGRIFIPYVMGWYRQAPGKERELVAVITESGGSTYYADSVKGRFTISRDNAKNTVYLQMNSLKPEDTAVYYCATRYGRGARTYHYYYWGQGTQVTVSS
- polyreactivity (PSR sort gate): high polyreactivity

Sequence: QVQLVESGGGLVQAGGSLRLSCAASGYTFGKNAMGWYRQAPGKERELVAAISRSGGSTFYADSVKGRFTISRDNAKHTVYLQMNSLKPEDTAVYYCAARSYVRFDYWGQGTQVTVSS
- polyreactivity (PSR sort gate): high polyreactivity

Sequence: QVQLVESGGGLVQAGGSLRLSCAASGGTFQINAMGWYRQAPGKERELVAAISRSGGSTSYADSVKGRFTISRDNAKNTVYLQMNSLKPEDTAVYYCNKRVRATAWYDYWGQGTQVTVSS
- polyreactivity (PSR sort gate): high polyreactivity

Sequence: QVQLVESGGGLVQAGGTLRLSCAASGIIFVWNAMGWYRQAPGKERELVAAITNGGSTYYADSVKGRFTISRDNAKNTVYLQMNSLKPEDTAVYYCNVRYFFRFRDDYWGQGTQVTVSS
- polyreactivity (PSR sort gate): low polyreactivity

Sequence: QVQLVESGGGLVQAGGSLRLSCAASGLIFHSYAMGWYRPAPGKERELVAAISRGGGSTYYADSVKGRFTISRDNAKNTVYLQMNSLKPEDTAVYYCAREYFTRYDYWGQGTQVTVSS
- polyreactivity (PSR sort gate): high polyreactivity

Sequence: QVQLEDSGRGLFQAGGSLRLSCAASGSNFAHYAMGWYIQAQGKERELVARFSWSGGSTYYADSVKGRFTISRDNAKNTVYLQMNSLKPEDTAVYYCAADHLYWGLEYEPWGQGTQVTVSS
- polyreactivity (PSR sort gate): low polyreactivity

Sequence: QGQLVESGGGLFQAGGSLRLSCDDSGRTFSGYAMGWYRQAPGKEREFVAAITWSGGSTYYADSVKGRFSISRDNAKNTVYLQMNSLKPEDTAVYYCAARDYTRYGYGYWGQGTQVTVSS
- polyreactivity (PSR sort gate): high polyreactivity

Sequence: QVQLVDSGGGLVQAGGSLRLSCAASGYTLDGNAMGWYRQAPGKQREFVAAITIRGGGTYYADSVKGRFTISRDNAKNTDYVQMNSLKPEDSAVYYCNADTYDPFPWGSDYWGQGTQVTVSS
- polyreactivity (PSR sort gate): high polyreactivity

Sequence: QVQLVESGGGLVQAGGSLRLSCAASGFTFTGNVMGWYRQAPGKERELVAAISSRGVSTYYADSVKGRFTISRDNAKNTVYLQMNSLKPEDTAVYYCAVSRIVDFGQKMYYWGQGTQVTVSS
- polyreactivity (PSR sort gate): high polyreactivity

Sequence: QVQLVESGGGLVQAGGSLRLSCAASGIIFTFYGMGWYRQAPGKERELVAAIRTGGSTTYADSVKGRFTISRDNAKNTVYLQMNSLKPEDTAVYYCAAERYWVFHGTISYNYDYWGQGTQVTVSS
- polyreactivity (PSR sort gate): low polyreactivity

Sequence: QVQLVESGGGLVQAGGSLRLSCAASGLIFPLYDMGWYIQAPGKDRELVAAITWGGGGTYYADSVKGRFTISRDNAKNTVYLQMNSLKPEDTAVYYCNADSDIAAPLRTYITFDYWGQGTQVTVSS
- polyreactivity (PSR sort gate): low polyreactivity

Sequence: QVQLVESGGGLVQAGGSLRLSCAASGRTFKYYAMGWYRQAPGKERELVATITWSGTSTNYADSVKGRFTISRDNAKNTVYLQMNSLKPEDTAVYYCAARSKRRNYDYWGQGTQVTVSS
- polyreactivity (PSR sort gate): high polyreactivity

Sequence: QVQLVDSGGGLVQAGGSLRLSCASSGFTISPYAMGWYRQAPGKERELVAAISSSGGSTYYADSVKGRFTISRDNAKYTVYLQMTSLKPEDTAVYYCATQGTRRPGKFYYWGQCTQVTVSS
- polyreactivity (PSR sort gate): high polyreactivity

Sequence: QVQLVESGGGLVLAGGSLRLSCAASGSMFGGYAMGWYLQSPGKERELVAAISYRGASTYYADSVKGRFTISRDNAKNTVYLQMNSVKPEDTAVYYCAVAARTRDRVLYGYDYWGQGTQVTVSS
- polyreactivity (PSR sort gate): low polyreactivity

Sequence: QVQLVESGGGLVQAGGSLRLSCAASGSTFKFYAMGWYRQAPGKERELVAAISRSGGSTYYADSVKGRFTLSRDNAKNTVYLQMNSLKPEDTAGYYCAAERTLKSDYWGQGTQVTVSS
- polyreactivity (PSR sort gate): high polyreactivity

Sequence: QVQLVESGGGLVQAGGSLRLRCAASGSIIGIYAMGWYRQAPGKERELVAAISWSGGSTYYADSVKGRFTISRDNAKNTVYLQMISLKPVDTAVYYCAARGHYQYYWGQGTQVTVSS
- polyreactivity (PSR sort gate): low polyreactivity

Sequence: QVQLVESGGGLVQAGGSLRLSCAASGSTFVYYAMGWYRQAPGKERELVADISWSGGDTYYADSVKGRFTISRDNAKNTVYLQMNSLKPVDTAVYYCAAEWSTPSYVGFADGFEYWGQGTQVTVSS
- polyreactivity (PSR sort gate): low polyreactivity

Sequence: QVQLVESGGGLVQAGGSLRLSCAASGFTFGPYDMGWYRQAPGKERELVAVIIGGDSTNYADSVKGRFTISRDNAKYTVYLQMNSLKPEDTAVYYCAADYIDRVGWMDYWGQGTQVTVSS
- polyreactivity (PSR sort gate): low polyreactivity

Sequence: QVQIVESGGGLVQAGGSLRLSCAASGRIFYAYAMGWYRQAPGKERELVAAISSGGSTKYADSVKGRFTISRDNAKNTVYLQMNSLKPEDTAVYYCNADATALSFGTLFDYWGQGTQVTVSS
- polyreactivity (PSR sort gate): low polyreactivity

Sequence: QVQLVESGGGLLQAGGRLRLSCAASGSIFAAYTMGWYRQAPWKERELVAAISVSTVSTYYADSVKGRFTISRDNAKITVYLQMNSLKPEDTAVYYCNADPTDSYPQKYEHDSWGQGTQVTVSS
- polyreactivity (PSR sort gate): low polyreactivity

Sequence: QVQLVESGGGLVQAGGSLRLSCAASGRIFDCYAMGWYRQAPRKEREFVASISRRGGSTYYADSVKGRFTISRDNAKNTVYLQMNSLKPEDTAVYYCAADAFFRLDYYYWGQGTQVTVSS
- polyreactivity (PSR sort gate): high polyreactivity

Sequence: HVQLQESGGGLVQAGGSMRLSCAESGSISELRPMGLYRKAPGKERELVAGISTGGSTNYADSVKGRFTISLDNAKNTVYLQMNSLKPEYTAVYFCAAASYCEGTYDYWGQGTQVTVRS
- polyreactivity (PSR sort gate): high polyreactivity

Sequence: QVQLVESGGGLVQAGGSLRLSCAASGITSKQYAMGWYRQAPGKEWELVAAISGSGTRTYYADSVKGRFTISRDNAKNTVYLQMNSQKPEDTAVYYCAAYYHLVVKRLRYDYWGQGTQVTVSS
- polyreactivity (PSR sort gate): high polyreactivity

Sequence: QVQLVESGGGLVQAGGSLRLSCAASGTFYPNAMGWYRQAPGKERELVAAISEDGGGTYYADSVKGRFTISRDNAKNTVYLQMNSLKPEDTAVYYCAAEYYDYWYTYDYWGQGTQVTVSS
- polyreactivity (PSR sort gate): high polyreactivity

Sequence: QVQLVESGGGLVQAGGSLRLSCAASGFTFGHYAMGWYRPAPGKERELVAAISSGDRTYYADSVKGRFTISRDNAKNTVYLQMNSLKPEDTAVYYCNAVYYSWAQSARFDYWGQGTQVTVSS
- polyreactivity (PSR sort gate): low polyreactivity

Sequence: QEQLQESGVGQVQAGGSLLLSCAASGNIIRYYYMGWYRQAPGKERELVAAITYGTSTNYADSVKGRFTISRDNAKNSVYLQINSLKPEDTAVYYCAATAYWFYAKYYYWGQGTQVTVSS
- polyreactivity (PSR sort gate): high polyreactivity

Sequence: QVQLVESGGGLVQAGGSLRLSCAASGRTFYFYTMGWYRQAPGKERELVATINWSGTSTYYADSVKGRFTISRDNAKNTVYLQMNSLKPEDTAVYYCAVRGGRYKYGYDYWGQGSQVTVSS
- polyreactivity (PSR sort gate): high polyreactivity

Sequence: QVQLVDSGGGLVQAGGSLRLSSAASGFIFYEYAMGWYRQAPGKEMELVAAITSGGSTDYADSVKGRFSSSRDNAKNTVYLQMNCMKPDDTAVYYCNADLLTGYYWYKYWGQGTQVSVSS
- polyreactivity (PSR sort gate): low polyreactivity

Sequence: QVQLVESGGGLVQAGGSLRLSCAASGLTFYRYAMGWYRQAPGKERELVAAITSGTRTYYADSVKGRFTISRDNAKNTVYLQMNSLKPEDTAVYYCAFRQGWYHFRYDYWGQGTQVTVSS
- polyreactivity (PSR sort gate): high polyreactivity

Sequence: QVQLVESGGGLVQAGGSLRLSCAASGSIFSINTMVWYRLAPGKERELVAAISRTGGSTYYADSVKGRFTNSRDNAKNTVYLQMNSLKPEDTAVYYCGKDRRRSTYEYWGQCTQVTVSS
- polyreactivity (PSR sort gate): high polyreactivity

Sequence: QVQLVESGGGLVQAGGSLRLSCAASGFIFSYYVMGWYRQAPGKERELVAAINESGGRTYYADSVKGRFTISRDNAKNTVYLQMNSLKPEDTAVYYCATIPGYVYYWQYKYDYWGQGTQVTVSS
- polyreactivity (PSR sort gate): low polyreactivity

Sequence: QVQLVESGGGLVQAGGSLRLSCAASGFIFHNYVMGWYRQAPGKERELVAVISGSGGSTYYADSVKGRFTISRDNAKNTVYLQMNSLKPEDTAVYYCAADNVYGYDYWGQGTQVTVSS
- polyreactivity (PSR sort gate): low polyreactivity

Sequence: QVQLVESGGGLVQAGGSLRLSCAASGSIFILNAMGWYRQAPGKERELGAAISWSGGRTNYADSVKGRFTISRDNAKNPVYLHMNSLKPEDTAVYYCAARVTPYRGFYYWGQGTQVTVSS
- polyreactivity (PSR sort gate): high polyreactivity

Sequence: QVQLVESGGGLVQAGGSLRLSCAASGRTFDVYAMGWYRQAPGKEMELVAAITRRGGSTYYADSVKGRFTISRDNAKNTVNLQMNRLKPEDTAVYYCSAAYSRGSGVGRYRLDYWGKGTQVTVSS
- polyreactivity (PSR sort gate): high polyreactivity

Sequence: QVQLVESGGGLVQAGGSLRLSCAASGFTFYIYAMGWYGLAAGKERELVAAINFRGGSTYYADSVKGRFTISRDNAKNTVYLQMNSLKPEDTAVKYCAARSRDKYDYWGQGTQVTVSS
- polyreactivity (PSR sort gate): high polyreactivity

Sequence: QVQLVESGGGLVQAGGSLRLSCAASGSIFAPYAMGRYRQAPGKERELVAAISTTGGTTYYADSVKGRFTISRDNAKNTVYLQMNSLKPEDTAVYYCAADWSESFGKGGDYWGQGTQVTVSS
- polyreactivity (PSR sort gate): low polyreactivity

Sequence: QVQLVESGGGLVQAGGSLRLSCAASGSIIDTYAMGWYRQAPGKERELVASWSGGSTYYADSVKGRFTISRDNAKNTVYLQMNSLKPEDTAVYYCAKDYYVQPPGTRDDYWGQGTQVTVSS
- polyreactivity (PSR sort gate): low polyreactivity

Sequence: QVQLVESGGGLVQAGGSLRLSCAASGSIFTHNAMGWYRQAPGKERELVATISYGGGRTYYADSVKGRFTISRDNAKNTVYLQMNSLKPEDTAVYYCAADVYWYAYVWRKYGYWGQGTQVTVSS
- polyreactivity (PSR sort gate): low polyreactivity

Sequence: QVQLVESGGGLVQAGGSLRLSCAASGLILYTYAMGWSRQAPGQVRELVAAINSGGRTYYADAVKGRFTISRDNAKNTVYLQMNSLKPEDTAVYYCAADYGSRVRGFNYWGQGTQVTVSS
- polyreactivity (PSR sort gate): low polyreactivity

Sequence: QVQLVESGGGLVQAGGSLRLSCAASGFIFQIYAMGWYRQAPGKERELVAAISSGGSTNYADSVKGRFTISRDNAKNTVYVQMNSMKPEDTAVYYCAAATHYWYFYSFKDKSGFRGYYWGQGTQVTVSS
- polyreactivity (PSR sort gate): high polyreactivity

Sequence: QVQLVESGGGLVQAGGSLRLSCVASGSIFRGNAMGWYRQAPGKERELVASISKGGGSTYYADSVKGRFIISRDNAKNTVYLQIHSLKPEDTAVYYCYKDYDRRDFYYWGLGTQVTVSS
- polyreactivity (PSR sort gate): low polyreactivity

Sequence: QVQLVESGGGIVQAGGSLRLSCAASGGIFDYNAMGWYRQAPGKERELVAAISGSDVSTYYADSVKGRFTISRDNAKNTVYLQMKSLKPEDTAVYYCAADAPWAYYEYDYWGQGTQVTVSS
- polyreactivity (PSR sort gate): low polyreactivity

Sequence: QVQLVESGGGLVQAGGSLRLSCAASGSTFDLYAMGWYRQATGKERELVAAISRSGGSTYYADSVKGRFTISRDNEKNTVYLQMNSLKPDDTAVYYCNARWPLGVSRGGMGYWGQGTQVTVSS
- polyreactivity (PSR sort gate): high polyreactivity
